Experimental data taken from patent US20260116983A1.

Assays:
[1] = biological target: human uPAR displayed on the surface of MDA-MB-231 cells (human) (UniProt Q03405); assay: cell-based or functional assay
[2] = biological target: human uPAR displayed on the surface of MDA-MB-231 cells (human) (UniProt Q03405); assay: flow cytometry (FACS) on MDA-MB-231 cells; isotype control

Sequence of human uPAR displayed on the surface of MDA-MB-231 cells (human) (Q03405 23-305): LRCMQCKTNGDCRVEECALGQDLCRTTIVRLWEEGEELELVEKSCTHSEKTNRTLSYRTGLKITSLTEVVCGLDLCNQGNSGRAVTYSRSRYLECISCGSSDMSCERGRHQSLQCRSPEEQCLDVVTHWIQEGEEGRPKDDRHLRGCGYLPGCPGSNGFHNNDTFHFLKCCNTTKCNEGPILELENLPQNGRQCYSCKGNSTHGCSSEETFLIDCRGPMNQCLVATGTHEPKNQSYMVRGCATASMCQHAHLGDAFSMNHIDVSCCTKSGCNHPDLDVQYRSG

Substance: human IgG1 control (antibody)
- ADCC NK-92 Max % [1]: 0.468%
- ADCC PBMCs Max % [1]: 4.8%
- Cellular recognition Max % [2]: 155%
